Test results published in patent US11426447B2, “Neuregulin for the treatment of tumors of the nervous system” (LEIBNIZ-INSTITUT FUR …, priority 2016, dated 2022).

Assays:
[1] = Body weight and tolerability of systemically treated animals; assay type: in vivo, mice
Procedure: A, Schematic representation of the protocol used to assess the efficacy of rhNRG1 treatment on schwannoma growth after experimental sciatic nerve crush injury. B, Serum levels of rhNRG1 after single intraperitoneal injections of 10 μg rhNRG1 per kg body weight measured in pooled blood (n=4 animals; median). C, Body weight of animals receiving (genotype and treatment as indicated) was determined over 13 weeks.
(§1) Crush injury-induced schwannoma formation was provoked in 2-month-old mice. Subsequently, administration of rhNRG1 was performed both systemically (by intraperitoneal injection) and locally (by rhNRG1-containing absorbable collagen sponges (ACS)). Vehicle saline solution was given to control animals. In order to assess the bioavailability of intraperitoneally injected rhNRG1 (10 μg per kg body weight), rhNRG1 serum levels were evaluated. Strikingly, rhNRG1 levels reached a peak 2 days after injection (FIG. 1B). […] A significant decline in body weight at the chosen dosage was, however, not observed (FIG. 1C).

[2] = in vivo; cited from earlier work
[3] = test system: crush injury-induced schwannoma; test: In situ tumour size quantification: sciatic nerve diameter after crush injury-induced schwannoma formation; assay type: in vivo, Nf2flox;P0-Cre;Nefh-Cre mutant mice; details: KO mice
Source text: (§2) Unilateral injuries of sciatic nerves were accomplished according to a previously described method (Bauder and Ferguson, 2012). In brief, 8 to 10 week old mice were anesthetized using 2% isoflurane in 100% oxygen. Fur was then removed from one hind limb. After an appropriate incision of the skin, the gluteal musculature was separated in order to reveal the right sciatic nerve. Using haemostatic forceps (Ultra Fine Haemostat; #13021-12; tip width 0.6 mm; Fine Science Tools; Germany), the nerve was crushed once by the application of a defined pressure for 20 s. The locking mechanism of the haemostatic forceps with a series of interlocking teeth ensured reproducibility and standardization of crush injury. Finally, both the gluteal musculature and skin incision were sutured using appropriate surgical suture material.
An EGF domain containing 7 kDa protein of recombinant human Neuregulin 1 (“rhNRG1”) was purchased from Reprokine (#RKQ02297; USA). Protein was firstly resolved in ddH2O and further diluted in phosphate-buffered saline (PBS) to reach target concentrations. […]
Sciatic nerve crush injury was conducted on WT mice and Nf2flox;P0-Cre;Nefh-Cre mutant mice as described above. […] Moreover by determining the myelin thickness, structural integrity of non-crushed, intact nerves was assessed (FIG. 7).

[4] = test system: tumorlets (neoplastic Schwann cell proliferation areas); test: Quantification of tumorlets in Nf2flox;Postn-Cre mice; assay type: in vivo; details: 20 μg rhNRG1 per kg bodyweight ip for three months, vs control animals
Source text: PFA-fixed tissue blocks derived from rhNRG1 and control treated animals containing lower spinal cord, lumbar dorsal root ganglions (DRG) as well as distal nerve proportions were cut in 4 planes per animal. Photographs were subsequently scanned and analyzed using the NanoZoomer Digital Pathology Software. The total area occupied by peripheral nerve tissue and dorsal root ganglion (DRG) tissue in mm^2 was quantified separately. Likewise, neoplastic tissue regions were identified and quantified separately for peripheral nerves and DRG areas. All quantitative analyses of tumorlets in Nf2flox;Postn-Cre mice were performed in blinded manner.
The in vivo results on the efficacy of rhNRG1 on schwannoma growth was tested as described in Example 1 however in a another animal model of schwannoma disease, the well-established Nf2flox;Postn-Cre mouse line, wherein a conditional Nf2 gene deletion is facilitated by the Periostin-Cre driver line (Nf2flox;Postn-Cre).
In this model all animals spontaneously develop spinal, peripheral and cranial nerve schwannomas over time (Gehlhausen et al., 2015). 4-month-old mutant Nf2flox;Postn-Cre animals as well as their corresponding wildtype littermates were either treated with saline control injections or intraperitoneal rhNRG1 administration for three months (FIG. 8A). […]

[5] = test system: sciatic nerve crush injury; test: Single-frame motion analysis (foot-base angle): functional recovery after sciatic nerve crush; assay type: in vivo, mice
Source text: as §2
To evaluate locomotor function, mice were accustomed, in 3-4 trials, to beam-walking 1 week prior to surgery. In this test, the animal walks voluntarily from one end of a horizontal beam (length 1000 mm, width 40 mm) towards its home cage located at the other end of the beam. For all mice, a rear view of one walking trial was captured once prior to surgery and at different time-points after surgery with a Video camera and stored on a personal computer in Audio Video Interleaved (AVI) format. The video sequences were examined using VirtualDub 1.6.19 software.
It was tested whether rhNRG1 protein replacement can improve functional recovery of mice over a time period of 8 weeks after sciatic nerve crush.

[6] = Serum levels of rhNRG1 after intraperitoneal injection (Nrg1 ELISA kit); assay type: in vivo, mice; details: single intraperitoneal injection, 10 μg per kg body weight, pooled blood
Procedure: To measure peripheral exposure of rhNRG1 in mice, up to 50 μl blood was sampled from mice for four consecutive days via bilateral retro-orbital plexus and facial veins. For serum preparation, collected blood was allowed to clot at room temperature for 1 hour before spinning for 20 minutes at 2,000 g.
Blood serum levels of rhNRG1 before and after intraperitoneal injection were measured using a commercially available kit according to manufacturer's instructions (#ab100614; Abcam; USA).
as §1

B1: rhNRG1: EGF domain containing 7 kDa protein of recombinant human Neuregulin 1, purchased from Reprokine (#RKQ02297) (protein, listed as Homo sapiens)
chain: SHLVKCAEKEKTFCVNGGECFMVKDLSNPSRYLCKCPNEFTGDRCQNYVMASFYKHLGIEF
tolerability ([1]; 10 μg/kg, Nf2flox;P0-Cre;Nefh-Cre animals): well tolerated | significant decline in body weight ([1]; systemic treatment at chosen dosage (10 μg/kg ip every other day), weighed weekly over 13 weeks): not observed | body weight [2]: decrease in body weight | sciatic nerve diameter 3 months after crush injury ([3]; local collagen sponges soaked in 0.2 mg/ml rhNRG1, KO vehicle ACS about 1.8 mm, WT about 1 mm): about 1.4 mm | sciatic nerve diameter 3 months after crush injury ([3]; systemic (ip) rhNRG1, KO vehicle about 2 mm, WT vehicle about 1 mm): about 1.5 mm | tumorlet fraction (area occupied by tumorlets relative to total nerve tissue area) [4]: significant reduction | functional recovery after sciatic nerve crush (SFMA) ([5]; Nf2flox;P0-Cre;Nefh-Cre mutant mice, intraperitoneal injections every other day, vs no treatment or saline): significantly improved recovery | functional regeneration after sciatic nerve crush (SFMA) ([5]; Nf2flox;P0-Cre;Nefh-Cre mutant mice, local administration with absorbable collagen sponges, vs control treatment): able to increase functional regeneration | functional recovery after sciatic nerve crush (SFMA) ([5]; wildtype animals, systemic rhNRG1, 8 weeks): does not enhance regeneration | time of peak rhNRG1 serum level after injection [6]: 2 days
